Results taken from the supplement of paper PMC10724198.
± gives the standard deviation of the averaged measurements.

How the values were obtained:
Assay in all cases: protein stability index of tFT-peptide fusion (C-terminal peptide) (PSI (0-1 scale)); higher = more stable (slower turnover)
Saccharomyces cerevisiae [1] = settings: temperature: 30 C
Method: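 MPS profiling in S. cerevisiae of the yeast C-terminome library: the last 12 aa of each annotated ORF are fused to the C-terminus of a sfGFP-mCherry timer, after a GGGS linker. Cells are FACS-sorted into 8 mCherry/sfGFP bins and deep-sequenced. PSI runs from 0 (unstable) to 1 (stable); wild type and das1Δ backgrounds, two technical replicates each.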

Saccharomyces cerevisiae [2] = system: Saccharomyces cerevisiae
Method: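 MPS profiling in S. cerevisiae of the tFT-X12 degron library: putative degron peptides plus stable controls, 12 aa, fused to the C-terminus of a sfGFP-mCherry timer. Cells are FACS-sorted into 8 mCherry/sfGFP bins and deep-sequenced. PSI runs from 0 (unstable) to 1 (stable). Backgrounds are wild type, das1Δ and doa10Δ at 30 °C, and wild type, das1Δ, cdc34-1 and cdc53-1 at 37 °C; 2-3 technical replicates each.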

Saccharomyces cerevisiae [3] = settings: genetic background: wild type; temperature: 30 C
[4] = genetic background: das1 deletion
[5] = genetic background: cdc34-1, temperature: 37 C
[6] = genetic background: cdc53-1, temperature: 37 C
[7] = genetic background: das1 deletion, temperature: 30 C
[8] = genetic background: das1 deletion, temperature: 37 C
[9] = genetic background: doa10 deletion, temperature: 30 C
[10] = genetic background: wild type, temperature: 30 C
[11] = genetic background: wild type, temperature: 37 C

Sequence | protein stability index (Saccharomyces cerevisiae [1]; [4]) | protein stability index (Saccharomyces cerevisiae [1]; genetic background: wild type) | protein stability index (Saccharomyces cerevisiae [2]; [5]) | protein stability index (Saccharomyces cerevisiae [2]; [6]) | protein stability index (Saccharomyces cerevisiae [2]; [7]) | protein stability index (Saccharomyces cerevisiae [2]; [8]) | protein stability index (Saccharomyces cerevisiae [2]; [9]) | protein stability index (Saccharomyces cerevisiae [2]; [10]) | protein stability index (Saccharomyces cerevisiae [2]; [11]) | protein stability index (Saccharomyces cerevisiae [3])
AAISFKEAARTD [HYP2 C-terminal 12 aa] | 0.725 ± 0.019 | 0.725 ± 0.07 |  |  |  |  |  |  |  | 
AAMLTSENAREI [RRP45 C-terminal 12 aa] | 0.707 ± 0.01 | 0.676 ± 0.035 |  |  |  |  |  |  |  | 
AARADRGANFRD [SPT16 C-terminal 12 aa] | 0.677 ± 0.022 | 0.726 ± 0.012 |  |  |  |  |  |  |  | 
AAVKLSQAKSKL [FOX2 C-terminal 12 aa] | 0.823 ± 0.019 | 0.752 ± 0.014 |  |  |  |  |  |  |  | 
ADDDIFVNGFLR [YHL002C-A C-terminal 12 aa] | 0.719 ± 0.02 | 0.7 ± 0.023 |  |  |  |  |  |  |  | 
ADMTKEFERESS [GLN1 C-terminal 12 aa] | 0.724 ± 0.018 | 0.701 ± 0.038 |  |  |  |  |  |  |  | 
AFKKAQAEKSKK [NOP12 C-terminal 12 aa] | 0.699 ± 0.054 | 0.73 ± 0.085 |  |  |  |  |  |  |  | 
AGAAWFFVKLLG [CCC1 C-terminal 12 aa] | 0.67 ± 0.017 | 0.476 ± 0.045 |  |  |  |  |  |  |  | 
AGHSNTLQVSTV [CDC19 C-terminal 12 aa] | 0.705 ± 0.0082 | 0.687 ± 0.014 |  |  |  |  |  |  |  | 
AILREVQFEVFR [NTA1 C-terminal 12 aa] | 0.699 ± 0.019 | 0.7068 ± 0.00076 |  |  |  |  |  |  |  | 
AIRRGLTKKNEK [GDE1 C-terminal 12 aa] | 0.72 ± 0.013 | 0.65687 ± 0.00059 |  |  |  |  |  |  |  | 
AIYPVLSEFRKM [SPT15 C-terminal 12 aa] | 0.701 ± 0.0082 | 0.706 ± 0.074 |  |  |  |  |  |  |  | 
AKEESSDSENET [CDC123 C-terminal 12 aa] | 0.6497 ± 0.004 | 0.703 ± 0.091 |  |  |  |  |  |  |  | 
AKEWDLEDPKSM [TAF9 C-terminal 12 aa] | 0.7024 ± 0.0067 | 0.726 ± 0.057 |  |  |  |  |  |  |  | 
AKSEDISCVLII [YPL238C C-terminal 12 aa] | 0.711 ± 0.025 | 0.646 ± 0.022 |  |  |  |  |  |  |  | 
AKYALLEVLKVS [YOR102W C-terminal 12 aa] | 0.581 ± 0.0095 | 0.187 ± 0.017 |  |  |  |  |  |  |  | 
AKYSKKKNNKNK [DEG1 C-terminal 12 aa] | 0.689 ± 0.043 | 0.668 ± 0.021 |  |  |  |  |  |  |  | 
ALCICCTMDMLF [YBR016W C-terminal 12 aa] | 0.6355 ± 0.0054 | 0.645 ± 0.048 |  |  |  |  |  |  |  | 
ALDAELDAYMKG [YRA2 C-terminal 12 aa] | 0.67911 ± 5.2e-05 | 0.7 ± 0.0058 |  |  |  |  |  |  |  | 
ALDAVDDAIILD [GET1 C-terminal 12 aa] | 0.716 ± 0.0098 | 0.659 ± 0.021 |  |  |  |  |  |  |  | 
ALLDPSDTLNFM [RDR1 C-terminal 12 aa] | 0.697 ± 0.024 | 0.704 ± 0.055 |  |  |  |  |  |  |  | 
ALNDIAKASYIY [CTK3 C-terminal 12 aa] | 0.677 ± 0.034 | 0.648 ± 0.016 |  |  |  |  |  |  |  | 

Sequence | protein stability index (Saccharomyces cerevisiae [1]; [4]) | protein stability index (Saccharomyces cerevisiae [1]; genetic background: wild type) | protein stability index (Saccharomyces cerevisiae [2]; [5]) | protein stability index (Saccharomyces cerevisiae [2]; [6]) | protein stability index (Saccharomyces cerevisiae [2]; [7]) | protein stability index (Saccharomyces cerevisiae [2]; [8]) | protein stability index (Saccharomyces cerevisiae [2]; [9]) | protein stability index (Saccharomyces cerevisiae [2]; [10]) | protein stability index (Saccharomyces cerevisiae [2]; [11]) | protein stability index (Saccharomyces cerevisiae [3])
ALNTYSSGFEIA [GID10 C-terminal 12 aa] | 0.661 ± 0.0013 | 0.676 ± 0.02 |  |  |  |  |  |  |  | 
ALSADGIYTIAN [PAU5 C-terminal 12 aa] | 0.71 ± 0.0096 | 0.6966 ± 0.0031 |  |  |  |  |  |  |  | 
ALVGIFVLAFFN [HPF1 C-terminal 12 aa] | 0.29 ± 0.043 | 0.251 ± 0.0084 |  |  |  |  |  |  |  | 
VVTFLCPLVGHV |  |  | 0.527 ± 0.023 | 0.501 ± 0.0074 | 0.372 ± 0.029 | 0.546 ± 0.012 | 0.341 ± 0.017 | 0.381 ± 0.013 | 0.507 ± 0.028 | 0.478 ± 0.019
VVWFCGFFFVMV |  |  | 0.386 ± 0.0054 | 0.449 ± 0.029 | 0.356 ± 0.036 | 0.509 ± 0.016 | 0.365 ± 0.031 | 0.325 ± 0.03 | 0.465 ± 0.012 | 0.399 ± 0.032
VWCVFHVWSGRL |  |  | 0.49 ± 0.035 | 0.585 ± 0.016 | 0.42 ± 0.023 | 0.6175 ± 0.0012 | 0.38 ± 0.007 | 0.409 ± 0.018 | 0.58 ± 0.012 | 0.494 ± 0.029
VWFVFVCAVCVL |  |  | 0.191 ± 0.029 | 0.298 ± 0.015 | 0.205 ± 0.012 | 0.3464 ± 0.003 | 0.138 ± 0.033 | 0.163 ± 0.023 | 0.271 ± 0.012 | 0.273 ± 0.0097
VWGLGWLVVGVG |  |  | 0.179 ± 0.0033 | 0.218 ± 0.029 | 0.185 ± 0.023 | 0.284 ± 0.012 | 0.165 ± 0.0044 | 0.179 ± 0.018 | 0.267 ± 0.0082 | 0.221 ± 0.011
VWPLAFFLRFFI |  |  | 0.547 ± 0.063 | 0.6021 ± 0.0019 | 0.529 ± 0.017 | 0.682 ± 0.017 | 0.247 ± 0.015 | 0.233 ± 0.013 | 0.3623 ± 0.0036 | 0.288 ± 0.014
VWSSSYVPLGVY |  |  | 0.319 ± 0.015 | 0.326 ± 0.066 | 0.275 ± 0.044 | 0.443 ± 0.0067 | 0.231 ± 0.015 | 0.271 ± 0.033 | 0.384 ± 0.013 | 0.398 ± 0.044
VWWTLWRVHMLG |  |  | 0.583 ± 0.028 | 0.644 ± 0.0072 | 0.592 ± 0.018 | 0.7151 ± 0.0031 | 0.106 ± 0.03 | 0.142 ± 0.021 | 0.218 ± 0.026 | 0.243 ± 0.024
VYCLFLPLGVAF |  |  | 0.115 ± 0.038 | 0.175 ± 0.072 | 0.184 ± 0.02 | 0.248 ± 0.0082 | 0.146 ± 0.016 | 0.171 ± 0.022 | 0.207 ± 0.026 | 0.27 ± 0.027
VYCLVLFFSQWC |  |  | 0.42 ± 0.03 | 0.484 ± 0.011 | 0.365 ± 0.025 | 0.543 ± 0.016 | 0.353 ± 0.013 | 0.351 ± 0.016 | 0.509 ± 0.013 | 0.452 ± 0.011
VYFPRLLVRVSW |  |  | 0.4489 ± 0.0015 | 0.472 ± 0.017 | 0.392 ± 0.029 | 0.508 ± 0.0082 | 0.436 ± 0.0082 | 0.377 ± 0.043 | 0.4787 ± 0.00097 | 0.407 ± 0.095
WAIMGLIIFCLF |  |  | 0.309 ± 0.0083 | 0.363 ± 0.031 | 0.3 ± 0.035 | 0.438 ± 0.015 | 0.222 ± 0.0086 | 0.244 ± 0.022 | 0.353 ± 0.012 | 0.329 ± 0.022
WGEAGRPAGRGA |  |  | 0.703 ± 0.032 | 0.758 ± 0.026 | 0.631 ± 0.007 | 0.745 ± 0.018 | 0.644 ± 0.017 | 0.6506 ± 0.004 | 0.73024 ± 1.3e-05 | 0.688 ± 0.039
WGFLSVVCLSGV |  |  | 0.501 ± 0.029 | 0.5235 ± 0.0052 | 0.4 ± 0.024 | 0.533 ± 0.015 | 0.384 ± 0.035 | 0.398 ± 0.013 | 0.522 ± 0.0023 | 0.458 ± 0.038
WGLGWRGALVAV |  |  | 0.417 ± 0.0089 | 0.42 ± 0.017 | 0.321 ± 0.033 | 0.4845 ± 0.0034 | 0.269 ± 0.0084 | 0.324 ± 0.027 | 0.454 ± 0.0095 | 0.385 ± 0.062
WGLPVGVESSGG |  |  | 0.712 ± 0.03 | 0.761 ± 0.021 | 0.648 ± 0.028 | 0.761 ± 0.0095 | 0.64 ± 0.012 | 0.661 ± 0.032 | 0.733 ± 0.015 | 0.732 ± 0.03
WGRFFWGCGVWV |  |  | 0.631 ± 0.07 | 0.7128 ± 0.0035 | 0.6 ± 0.016 | 0.725 ± 0.0095 | 0.438 ± 0.016 | 0.463 ± 0.032 | 0.644 ± 0.031 | 0.55 ± 0.074
WGRGYRWRIWDV |  |  | 0.708 ± 0.068 | 0.772 ± 0.018 | 0.657 ± 0.015 | 0.7901 ± 0.0042 | 0.396 ± 0.01 | 0.433 ± 0.0092 | 0.656 ± 0.034 | 0.546 ± 0.093
WIGCTVKIASLY |  |  | 0.619 ± 0.015 | 0.67 ± 0.018 | 0.558 ± 0.03 | 0.693 ± 0.012 | 0.219 ± 0.021 | 0.261 ± 0.019 | 0.49113 ± 0.00019 | 0.437 ± 0.036
